Assay results published in patent US20110097262A1 (PIERRE FABRE MEDICAMENT, published 2011).

B1: [224G11] [MHchim] (antibody, human IgG1, V domains shown)
VH: EVQLQQSGPELVKPGASVKISCKTSGYIFTAYTMHWVRQSLGESLDWIGGIKPNNGLANYNQKFKGKATLTVDKSSSTAYMDLRSLTSEDSAVYYCARSEITTEFDYWGQGTALTVSS
VL: DIVLTQSPASLAVSLGQRATISCRASESVDSYANSFMHWYQQKPGQPPKLLIYRASNLESGIPARFSGSGSRTDFTLTINPVEADDVATYYCQQSKEDPLTFGSGTKLEMKR
B2: [224G11] [MMCHchim] (antibody, human IgG1, V domains shown)
VH: B1 VH
VL: B1 VL
B3: [224G11] [MUP9Hchim] (antibody, human IgG1, V domains shown)
VH: B1 VH
VL: B1 VL
B4: [224G11][TH7chim] (antibody, human IgG1)
heavy: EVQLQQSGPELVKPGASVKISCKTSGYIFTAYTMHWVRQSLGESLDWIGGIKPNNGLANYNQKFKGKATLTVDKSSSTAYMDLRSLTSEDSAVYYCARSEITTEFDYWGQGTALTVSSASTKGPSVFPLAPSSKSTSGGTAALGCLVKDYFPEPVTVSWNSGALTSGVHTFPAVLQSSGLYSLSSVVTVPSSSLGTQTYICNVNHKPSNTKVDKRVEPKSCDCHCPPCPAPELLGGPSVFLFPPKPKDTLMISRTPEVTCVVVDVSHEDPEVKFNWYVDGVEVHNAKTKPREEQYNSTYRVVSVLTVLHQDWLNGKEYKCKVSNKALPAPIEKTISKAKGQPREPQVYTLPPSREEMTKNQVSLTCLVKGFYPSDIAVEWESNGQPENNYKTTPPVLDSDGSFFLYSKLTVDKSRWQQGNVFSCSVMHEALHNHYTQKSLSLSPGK
light: DIVLTQSPASLAVSLGQRATISCRASESVDSYANSFMHWYQQKPGQPPKLLIYRASNLESGIPARFSGSGSRTDFTLTINPVEADDVATYYCQQSKEDPLTFGSGTKLEMKRTVAAPSVFIFPPSDEQLKSGTASVVCLLNNFYPREAKVQWKVDNALQSGNSQESVTEQDSKDSTYSLSSTLTLSKADYEKHKVYACEVTHQGLSSPVTKSFNRGEC
B5: [224G11] [IgG2chim] (antibody)
heavy: EVQLQQSGPELVKPGASVKISCKTSGYIFTAYTMHWVRQSLGESLDWIGGIKPNNGLANYNQKFKGKATLTVDKSSSTAYMDLRSLTSEDSAVYYCARSEITTEFDYWGQGTALTVSSASTKGPSVFPLAPCSRSTSESTAALGCLVKDYFPEPVTVSWNSGALTSGVHTFPAVLQSSGLYSLSSVVTVPSSNFGTQTYTCNVDHKPSNTKVDKTVERKCCVECPPCPAPPVAGPSVFLFPPKPKDTLMISRTPEVTCVVVDVSHEDPEVQFNWYVDGVEVHNAKTKPREEQFNSTFRVVSVLTVVHQDWLNGKEYKCKVSNKGLPAPIEKTISKTKGQPREPQVYTLPPSREEMTKNQVSLTCLVKGFYPSDIAVEWESNGQPENNYKTTPPMLDSDGSFFLYSKLTVDKSRWQQGNVFSCSVMHEALHNHYTQKSLSLSPG
light: B4 light

Biological target: C-Met-Rluc (R. reniformis, UniProt P08581 25-1390; P27652 1-311)
Assay: cell-based or functional assay

C-Met-Rluc, sequence (P08581 other isoform, or with tags, fused parts or gaps): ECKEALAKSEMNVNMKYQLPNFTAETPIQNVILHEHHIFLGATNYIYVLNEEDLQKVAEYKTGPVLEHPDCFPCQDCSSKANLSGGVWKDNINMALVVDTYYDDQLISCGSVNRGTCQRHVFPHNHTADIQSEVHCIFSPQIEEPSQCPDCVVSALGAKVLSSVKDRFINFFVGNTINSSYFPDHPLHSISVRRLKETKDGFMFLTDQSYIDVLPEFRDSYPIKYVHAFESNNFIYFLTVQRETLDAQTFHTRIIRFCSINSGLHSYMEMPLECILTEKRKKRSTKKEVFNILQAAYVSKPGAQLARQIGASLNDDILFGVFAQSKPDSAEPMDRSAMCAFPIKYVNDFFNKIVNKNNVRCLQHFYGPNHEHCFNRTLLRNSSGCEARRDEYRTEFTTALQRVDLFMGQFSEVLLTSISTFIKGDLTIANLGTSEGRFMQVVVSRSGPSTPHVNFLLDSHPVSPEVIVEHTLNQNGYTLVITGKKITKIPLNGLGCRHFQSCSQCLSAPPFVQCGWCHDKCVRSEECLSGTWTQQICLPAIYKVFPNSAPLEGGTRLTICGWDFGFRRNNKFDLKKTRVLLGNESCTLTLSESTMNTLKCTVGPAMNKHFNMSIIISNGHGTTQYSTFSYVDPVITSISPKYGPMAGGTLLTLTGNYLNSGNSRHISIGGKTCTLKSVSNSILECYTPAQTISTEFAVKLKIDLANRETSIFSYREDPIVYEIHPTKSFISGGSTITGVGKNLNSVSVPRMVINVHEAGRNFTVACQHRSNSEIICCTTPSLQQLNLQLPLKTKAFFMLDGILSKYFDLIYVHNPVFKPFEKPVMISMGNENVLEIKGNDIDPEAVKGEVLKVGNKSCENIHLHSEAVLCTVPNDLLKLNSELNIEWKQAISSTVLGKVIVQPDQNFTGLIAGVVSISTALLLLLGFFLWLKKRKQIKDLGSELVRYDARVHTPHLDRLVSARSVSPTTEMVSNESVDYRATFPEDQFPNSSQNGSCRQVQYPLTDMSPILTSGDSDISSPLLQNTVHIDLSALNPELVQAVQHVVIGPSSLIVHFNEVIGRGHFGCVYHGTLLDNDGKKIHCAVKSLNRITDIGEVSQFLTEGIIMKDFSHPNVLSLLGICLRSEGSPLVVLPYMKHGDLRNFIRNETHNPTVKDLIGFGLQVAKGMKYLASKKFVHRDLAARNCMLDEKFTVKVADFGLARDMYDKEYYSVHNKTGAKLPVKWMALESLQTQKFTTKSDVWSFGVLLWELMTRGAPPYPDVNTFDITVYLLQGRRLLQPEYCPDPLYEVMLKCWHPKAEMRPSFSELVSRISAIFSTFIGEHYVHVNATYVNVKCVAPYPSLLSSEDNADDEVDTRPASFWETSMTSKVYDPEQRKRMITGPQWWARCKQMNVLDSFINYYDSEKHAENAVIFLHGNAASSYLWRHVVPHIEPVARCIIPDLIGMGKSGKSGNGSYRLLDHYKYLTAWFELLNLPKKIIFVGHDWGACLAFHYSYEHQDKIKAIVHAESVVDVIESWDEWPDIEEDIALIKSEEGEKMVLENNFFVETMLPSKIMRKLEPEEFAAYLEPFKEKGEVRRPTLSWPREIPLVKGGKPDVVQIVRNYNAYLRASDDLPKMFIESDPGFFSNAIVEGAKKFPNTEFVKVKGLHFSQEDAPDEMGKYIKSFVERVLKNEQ

Binder	BRET signal by Mab alone, c-Met activation model [%]	inhibition of HGF induced BRET signal, c-Met activation model [%]
B1	5.1	
B2	-2	
B3	7.6	
B4	-6.9	
B5		66.3
